In PMC8284666, “Biochemical characterization of protease activity of Nsp3 from SARS-CoV-2 and its inhibition by nanobodies” (PLoS ONE, 2021):

B1: NbSL19, displayed on yeast (VHH)
VHH: QVQLQESGGGLVQAGGSLRLSCAASGSIFFQAYMGWYRQAPGKERELVAGIDAGTTTYYADSVKGRFTISRDNAKNTVYLQMNSLKPEDTAVYYCAAEYFWNYNPYRGTNSTHPYWGQGTQVTVSS
B2: NbSL17, displayed on yeast (VHH)
VHH: QVQLQESGGGLVQAGGSLRLSCAASGSISDSTRMGWYRQAPGKERELVATITYGSTTYYADSVKGRFTISRDNAKNTVYLQMNSLKPEDTAVYYCAAFDENVYVYRPYHYYWGQGTQVTVSS

Target: T1, Biotinylated AVI-PLpro wild type (SARS-CoV-2 Nsp3 743-1072) (SARS-CoV-2, Wuhan-Hu-1 (MN908947.3), UniProt P0DTD1, biotin (BirA biotinylation of the Avi tag))
T1 construct: also called biotinylated PLpro; WT PLpro^CoV-2
Assay: flow cytometry on cells
Conditions: one partner purified

Binder | binding result
B1 | binds
B2 | binds
